Laboratory results published in publication PMC5114558, “Reader domain specificity and lysine demethylase-4 family function” (Nature Communications, 2016).

Key:
Experiment in all cases: fluorescence polarisation; fluorescein-labelled histone peptide 3 nM, KDM4 DTD titrated 0.1-100 μM; 30 mM HEPES, 150 mM NaCl pH 7.4, 0.01% Triton X-100
[1] = target: H3 (17-32) K23me3 peptide, fluorescein-labelled (UniProt P68431)
[2] = target: H3K23me1 peptide (monomethylated H3K23), fluorescein-labelled
[3] = target: H3K23me2 peptide (dimethylated H3K23), fluorescein-labelled
[4] = target: H3K23me3R26A peptide, fluorescein-labelled
[5] = target: H3K23me3R26me2a peptide, fluorescein-labelled
[6] = target: H3T22phK23me3 peptide, fluorescein-labelled

Kd [1] [µM] | Kd [2] [µM] | Kd [3] [µM] | Kd [4] [µM] | Kd [5] [µM] | Kd [6] [µM] | Substance
2.2 | 98.5 | 9.06 | 32.3 | 8.7 | 83.7 | KDM4A double tudor domain (KDM4A-DTD), HaloTag-tagged, wild type (from UniProt O75164 895-1011) (domain or fragment)
10.3 | – | – | – | – | – | KDM4B double tudor domain (KDM4B-DTD), HaloTag-tagged, wild type (from UniProt O94953 917-1031) (domain or fragment)
